{
  "source": "paper PMC12255303",
  "about": "“Regulation of a phage defence island by RptR, a novel repressor that controls restriction–modification systems in diverse bacteria”",
  "key": {"[1]": {"molecular_target": "RptR (RMS-proximal transcriptional regulator) with an N-terminal His6 tag and 3C protease cleavage site (Escherichia coli O127:H6 E2348/69 (EPEC))", "assay": "SEC; analytical SEC on Superdex 75 Increase 10/300 GL, calibrated with five low-MW standards; MW of His6-3C-RptR interpolated from elution volumes of the purification (SEC buffer 25 mM Tris-HCl pH 8, 200 mM KCl)"}, "[2]": {"molecular_target": "T1, RptR (His6-3C-RptR) (Escherichia coli O127:H6 E2348/69 (EPEC), UniProt B7UP23 1-79)", "T1 sequence": "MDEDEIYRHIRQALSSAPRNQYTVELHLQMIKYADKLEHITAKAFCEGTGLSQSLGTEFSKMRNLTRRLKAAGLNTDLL", "assay": "EMSA; per RptR dimer; Hill coefficient 3.4; EMSA: 25 mM Tris-HCl pH 8, 150 mM NaCl, 5 mM MgCl2, 0.05 uM dsDNA, 37 C 30 min then 4 C; 8% TBE-PAGE at 4 C, SYBR Gold", "conditions": "protein: recombinant; tags: N-terminal His6 and 3C protease site (cleavage not described); chain copies: 2; blunt"}, "[3]": {"molecular_target": "T1, RptR (His6-3C-RptR)", "assay": "EMSA; single shift", "conditions": "protein: recombinant; tags: N-terminal His6 and 3C protease site (cleavage not described); chain copies: 2; blunt"}, "[4]": {"molecular_target": "T1, RptR (His6-3C-RptR)", "assay": "EMSA; same shift as DR1/s/3", "conditions": "protein: recombinant; tags: N-terminal His6 and 3C protease site (cleavage not described); chain copies: 2; blunt"}, "[5]": {"molecular_target": "T1, RptR (His6-3C-RptR)", "assay": "EMSA; higher shift only", "conditions": "protein: recombinant; tags: N-terminal His6 and 3C protease site (cleavage not described); chain copies: 2; blunt"}, "[6]": {"molecular_target": "T1, RptR (His6-3C-RptR)", "assay": "EMSA; binding abolished", "conditions": "protein: recombinant; tags: N-terminal His6 and 3C protease site (cleavage not described); chain copies: 2; blunt"}, "[7]": {"molecular_target": "T1, RptR (His6-3C-RptR)", "assay": "EMSA; up to 1.2 uM RptR; EMSA: 25 mM Tris-HCl pH 8, 150 mM NaCl, 5 mM MgCl2, 0.05 uM dsDNA, 37 C 30 min then 4 C; 8% TBE-PAGE at 4 C, SYBR Gold", "conditions": "protein: recombinant; tags: N-terminal His6 and 3C protease site (cleavage not described); chain copies: 2; blunt"}},
  "data": [
    {"molecule": "RptR (RMS-proximal transcriptional regulator) with an N-terminal His6 tag and 3C protease cleavage site (natural protein)", "values": [
      {"measurement": "stoichiometry N", "setting": "[1]", "value": 2}
    ]},
    {"molecule": "DR1/2/3 (WT) (dsDNA) DNA 1: AGTTCTTGAACCTGATACCACATTTAGCTAATTTAGCTAATTTAGCTAACTTATCCATTA DNA 2: TAATGGATAAGTTAGCTAAATTAGCTAAATTAGCTAAATGTGGTATCAGGTTCAAGAACT", "values": [
      {"measurement": "Kd", "setting": "[2]", "value": 185, "unit": "nM"}
    ]},
    {"molecule": "DR1/2/s (WT control) (dsDNA) DNA 1: AGTTCTTGAACCTGATACCACATTTAGCTAATTTAGCTAATTGAATCTACTTATCCATTA DNA 2: TAATGGATAAGTAGATTCAATTAGCTAAATTAGCTAAATGTGGTATCAGGTTCAAGAACT", "values": [
      {"measurement": "binding result", "setting": "[3]", "value": "binds"}
    ]},
    {"molecule": "DRs/2/3 (dsDNA) DNA 1: AGTTCTTGAACCTGATACCACATTGAATCTATTTAGCTAATTTAGCTAACTTATCCATTA DNA 2: TAATGGATAAGTTAGCTAAATTAGCTAAATAGATTCAATGTGGTATCAGGTTCAAGAACT", "values": [
      {"measurement": "binding result", "setting": "[3]", "value": "binds"}
    ]},
    {"molecule": "DR1/r/3 (dsDNA) DNA 1: AGTTCTTGAACCTGATACCACATTTAGCTAAGAGAGAGAGTTTAGCTAACTTATCCATTA DNA 2: TAATGGATAAGTTAGCTAAACTCTCTCTCTTAGCTAAATGTGGTATCAGGTTCAAGAACT", "values": [
      {"measurement": "binding result", "setting": "[4]", "value": "binds"}
    ]},
    {"molecule": "DR1/s/3 (dsDNA) DNA 1: AGTTCTTGAACCTGATACCACATTTAGCTAATTGAATCTATTTAGCTAACTTATCCATTA DNA 2: TAATGGATAAGTTAGCTAAATAGATTCAATTAGCTAAATGTGGTATCAGGTTCAAGAACT", "values": [
      {"measurement": "binding result", "setting": "[5]", "value": "binds"}
    ]},
    {"molecule": "DR1/2/3 C6G (labelled C5G in Fig S4) (dsDNA) DNA 1: AGTTCTTGAACCTGATACCACATTTAGGTAATTTAGGTAATTTAGGTAACTTATCCATTA DNA 2: TAATGGATAAGTTACCTAAATTACCTAAATTACCTAAATGTGGTATCAGGTTCAAGAACT", "values": [
      {"measurement": "binding result", "setting": "[6]", "value": "no binding"}
    ]},
    {"molecule": "DRs/s/s (dsDNA) DNA 1: AGTTCTTGAACCTGATACCACATTGAATCTATTGAATCTATTGAATCTACTTATCCATTA DNA 2: TAATGGATAAGTAGATTCAATAGATTCAATAGATTCAATGTGGTATCAGGTTCAAGAACT", "values": [
      {"measurement": "binding result", "setting": "[7]", "value": "no binding"}
    ]}
  ]
}
